Experimental data from the supplement of paper PMC9112550, “Optimization of the antimicrobial peptide Bac7 by deep mutational scanning” (BMC Biology, 2022).

system: Escherichia coli TOP10; experiment: shrunken log2 fold change of peptide-encoding DNA abundance (4.5 h post-induction vs induction); higher = less antimicrobial activity (less host growth inhibition); conditions: time post-induction: 4.5 h; library: site-saturation at positions 5, 18, 19, 20
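Note: peptides expressed intracellularly from a pBAD plasmid library in pooled LB shake-flask culture, induced with 0.3% L-arabinose, DNA abundance read by NGS, three biological replicates, DESeq2 with apeglm shrinkage.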

Row | Sequence | shrunken log2 fold change
1 | RRIRDRPPRLPRPRPRPRTFPRP | -0.0632
2 | RRIRDRPPRLPRPRPRPRTPPRP | 0.17
3 | RRIRDRPPRLPRPRPRPRVFPRP | 0.485
4 | RRIRDRPPRLPRPRPRPRVPPRP | 0.523
5 | RRIRDRPPRLPRPRPRPRVTPRP | -0.0173
6 | RRIRDRPPRLPRPRPRPSCHPRP | -0.287
7 | RRIRDRPPRLPRPRPRPSDDPRP | 0.126
8 | RRIRDRPPRLPRPRPRPSHFPRP | -0.0338
9 | RRIRDRPPRLPRPRPRPSHQPRP | -0.211
10 | RRIRDRPPRLPRPRPRPSHTPRP | -0.436
11 | RRIRDRPPRLPRPRPRPSINPRP | -0.113
12 | RRIRDRPPRLPRPRPRPSIVPRP | -0.0831
13 | RRIRDRPPRLPRPRPRPSKNPRP | -0.106
14 | RRIRDRPPRLPRPRPRPSKSPRP | -0.223
15 | RRIRDRPPRLPRPRPRPSLQPRP | 0.073
16 | RRIRDRPPRLPRPRPRPSLWPRP | 1.09
17 | RRIRDRPPRLPRPRPRPSMHPRP | -0.176
18 | RRIRDRPPRLPRPRPRPSNIPRP | -0.182
19 | RRIRDRPPRLPRPRPRPSQAPRP | 0.136
20 | RRIRDRPPRLPRPRPRPSQLPRP | -0.633
21 | RRIRDRPPRLPRPRPRPSQMPRP | 0.0862
22 | RRIRDRPPRLPRPRPRPSQWPRP | -0.119
23 | RRIRDRPPRLPRPRPRPSRFPRP | 0.128
24 | RRIRDRPPRLPRPRPRPSSFPRP | -0.178
25 | RRIRDRPPRLPRPRPRPSSGPRP | -0.0626

Row | Sequence | shrunken log2 fold change
26 | RRIRDRPPRLPRPRPRPSSKPRP | -0.0562
27 | RRIRDRPPRLPRPRPRPSTCPRP | -0.0465
28 | RRIRDRPPRLPRPRPRPSVLPRP | -0.246
29 | RRIRDRPPRLPRPRPRPSYEPRP | 0.175
30 | RRIRDRPPRLPRPRPRPTACPRP | 0.388
31 | RRIRDRPPRLPRPRPRPTEQPRP | -0.0141
32 | RRIRDRPPRLPRPRPRPTHCPRP | 0.0452
33 | RRIRDRPPRLPRPRPRPTKCPRP | -0.0929
34 | RRIRDRPPRLPRPRPRPTLTPRP | 0.717
35 | RRIRDRPPRLPRPRPRPTMGPRP | 1.05
36 | RRIRDRPPRLPRPRPRPTMTPRP | 0.334
37 | RRIRDRPPRLPRPRPRPTNGPRP | -0.0673
38 | RRIRDRPPRLPRPRPRPTNIPRP | -0.271
39 | RRIRDRPPRLPRPRPRPTNKPRP | -0.0409
40 | RRIRDRPPRLPRPRPRPTPPPRP | 0.49
41 | RRIRDRPPRLPRPRPRPTPWPRP | 0.66
42 | RRIRDRPPRLPRPRPRPTPYPRP | -0.13
43 | RRIRDRPPRLPRPRPRPTRKPRP | 0.385
44 | RRIRDRPPRLPRPRPRPTRNPRP | 0.174
45 | RRIRDRPPRLPRPRPRPTSLPRP | -0.0226
46 | RRIRDRPPRLPRPRPRPTVEPRP | 0.766
47 | RRIRDRPPRLPRPRPRPTVKPRP | -0.043
48 | RRIRDRPPRLPRPRPRPTWGPRP | 0.282
49 | RRIRDRPPRLPRPRPRPTWHPRP | 0.376
50 | RRIRDRPPRLPRPRPRPTWMPRP | 0.507

Row | Sequence | shrunken log2 fold change
51 | RRIRDRPPRLPRPRPRPTWRPRP | 0.756
52 | RRIRDRPPRLPRPRPRPTYGPRP | -0.257
53 | RRIRDRPPRLPRPRPRPVALPRP | 0.816
54 | RRIRDRPPRLPRPRPRPVATPRP | 0.814
55 | RRIRDRPPRLPRPRPRPVCEPRP | 1.18
56 | RRIRDRPPRLPRPRPRPVCNPRP | 0.861
57 | RRIRDRPPRLPRPRPRPVDLPRP | 0.0194
58 | RRIRDRPPRLPRPRPRPVDWPRP | 0.812
59 | RRIRDRPPRLPRPRPRPVEAPRP | 0.441
60 | RRIRDRPPRLPRPRPRPVFAPRP | 0.597
61 | RRIRDRPPRLPRPRPRPVFKPRP | -0.0946
62 | RRIRDRPPRLPRPRPRPVGEPRP | 0.55
63 | RRIRDRPPRLPRPRPRPVGNPRP | 0.114
64 | RRIRDRPPRLPRPRPRPVGPPRP | -0.286
65 | RRIRDRPPRLPRPRPRPVHGPRP | 1.43
66 | RRIRDRPPRLPRPRPRPVHQPRP | -0.0516
67 | RRIRDRPPRLPRPRPRPVIFPRP | 0.212
68 | RRIRDRPPRLPRPRPRPVITPRP | 0.0916
69 | RRIRDRPPRLPRPRPRPVLTPRP | 0.31
70 | RRIRDRPPRLPRPRPRPVMFPRP | 0.16
71 | RRIRDRPPRLPRPRPRPVMRPRP | 0.592
72 | RRIRDRPPRLPRPRPRPVMTPRP | 0.374
73 | RRIRDRPPRLPRPRPRPVNCPRP | -0.328
74 | RRIRDRPPRLPRPRPRPVNYPRP | -0.116
75 | RRIRDRPPRLPRPRPRPVQLPRP | 0.0283
